What was measured:
Thermostability = type: physicochemical
mIL22 = molecular target: T1, mIL22 (Mus musculus, UniProt Q9JJY9); test: Inhibition of mIL-22 induced acute phase response (SAA) in mice; type: in vivo; conditions: 5 μg mIL22 and 50 μg mAb; molar ratio of mIL 22:mAb = 1:2.2; SAA in mice at 24 hours
T1 sequence (Q9JJY9 34-179): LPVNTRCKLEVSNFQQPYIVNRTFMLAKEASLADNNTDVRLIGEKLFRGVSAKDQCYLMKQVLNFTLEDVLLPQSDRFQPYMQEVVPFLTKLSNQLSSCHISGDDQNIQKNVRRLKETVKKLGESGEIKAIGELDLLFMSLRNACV
Experimental: IL-22 induces acute phase responses in animals such as mice and humans. The mutant antibodies of the present invention can inhibit the acute phase response induced by IL-22. This acute phase response is indicated by the concentration of serum amyloid (SAA) in the blood of the animal as shown in FIG. 11. The SAA concentrations in the blood of mice were measured 24 hours after treatment of the mice by IL-22 and/or the mutant antibodies. When only IL-22 is used, the SAA concentration was high.
5 μg mIL-22 was used to stimulate an acute phase response in mice. The acute phase response was measured by the concentration of serum amyloid (SAA) in the blood of the mice. The anti-IL-22 antibodies were administered at two different dosage levels to inhibit the IL-22 induced acute phase response: 5 μg and 50 μg. Five mice were used for each dose group. The SAA concentrations were measured at 24 hours after injection of IL-22 and/or antibodies and the results are shown in FIG. 11.

mouse IL-22 = molecular target: T2, mouse IL-22 (Mus musculus, UniProt Q9JJY9); test: SPR capture assay, affinity to mouse IL-22; type: binding; conditions: mouse IL-22, SPR
T2 sequence (Q9JJY9 34-179): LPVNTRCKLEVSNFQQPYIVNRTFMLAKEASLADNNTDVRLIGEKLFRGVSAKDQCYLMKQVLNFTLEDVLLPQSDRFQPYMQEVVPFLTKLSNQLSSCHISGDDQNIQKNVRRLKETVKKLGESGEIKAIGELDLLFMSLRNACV
Experimental: (§1) The affinity of the 10 antibodies of Table 1 was measured by Surface Plasma Resonance (SPR) using a capture assay in PBS buffer to generate binding curves at four different concentrations of each antibody (0.05, 0.1, 0.5, and 1.0 μg/ml). The Ka, Kd and KD values for the mutant antibodies were calculated from the curves for each of the antibodies.
(§2) The affinity of the 10 antibodies of Table 1 was measured by Surface Plasma Resonance (SPR) using a capture assay on a SPR-2 instrument (SierraSensiors, Hamburg, Germany). The antigens hIL-22 and mIL-22 were immobilized on chips. The running buffer for the assay contained 10 mM HEPES with a pH of 7.4, 500 mM NaCl, and 0.05% TWEEN® 20. […] The off-rate was measured for 6 minutes. Binding constants were calculated using the curve fitting software Analyzer2 (Sierra Sensors). Sensorgrams were analyzed with the instrument specific software and with BIAevaluation 4.1 software. The binding data were analyzed using the Langmuir 1:1 model (human IL-22) or a model for a heterogeneous ligand ([…]).
(§3) The antibodies were tested at four different concentrations of each antibody: 0.33 nM, 0.67 nM, 3.3 nM, 6.7 nM for hIL-22; 1, 2, […] for mIL-22. Antibody CPE-LC-E049K was used as a control.

human IL-22 = molecular target: T3, human IL-22 (Homo sapiens, UniProt Q9GZX6); test: SPR capture assay, affinity to human IL-22; type: binding; conditions: human IL-22, SPR
T3 sequence (Q9GZX6 34-179): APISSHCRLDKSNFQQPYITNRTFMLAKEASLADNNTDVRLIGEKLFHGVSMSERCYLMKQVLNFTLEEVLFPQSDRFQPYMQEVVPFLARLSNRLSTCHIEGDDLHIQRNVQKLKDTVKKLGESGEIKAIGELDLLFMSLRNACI
Experimental: as §1, §2, §3

B1: CPS02: mutant anti-IL-22 antibody binding human and mouse IL-22; light chain LC-06, heavy chain HC-08 (antibody, V domains shown)
VH: QVQLVQSGAEVKKPGASVKVSCKASGYIFRSYWIHWIRQPPGKGLEWIGRIYPGTGRTYYNEKFKGRVTISADKSISTAYLQWSSLKASDTAMYYCARSYDSSVAYWGQGTLVTVSS
VL: AIQLTQSPSSLSASVGDRVTITCSASSSVSYMHWYLQKPGQSPQLLIYKTRKLASGVPSRFSGSGSGTDFTFTISSLEAEDAATYYCQQWSSNPYITFGQGTKVEIKR
Thermostability
  Thermostability (% remaining activity 60 min); of duplicate samples: 104%
mIL22
  Acute Phase response (% signal reduction): signal increase
Mouse IL-22
  ka: 166000 M·s
  kd: 0.000545 s⁻¹
Human IL-22
  ka: 1.87e+06 M·s
  kd: 4.67e-05 s⁻¹

From patent US11834472B2, “Anti-IL-22 antibodies, antibody fragments, their immunoconjugates and uses thereof” (BioAtla, Inc., priority 2018, dated 2023)
